Measurements from patent US20240117334A1, “FACTOR B PROTEASES” (Vertex Pharmaceuticals Incorporated, priority 2021, published 2024).

B1: chymase C22S/L99R/F173L/K192R/Y215H/R217T/S218V/A226R (enzyme)
chain: IIGGTESKPHSRPYMAYLEIVTSNGPSKFCGGFLIRRNFVLTAAHCAGRSITVTLGAHNITEEEDTWQKLEVIKQFRHPKYNTSTRHHDIMLLKLKEKASLTLAVGTLPFPSQFNFVPPGRMCRVAGWGRTGVLKPGSDTLQEVKLRLMDPQACSHLRDFDHNLQLCVGNPRKTKSAFRGDSGGPLLCAGVAQGIVSHGTVDAKPPRVFTRISHYRPWINQILQAN
B2: chymase C22S/K40L/F41V/G151R/K192R/A226R (enzyme)
chain: IIGGTESKPHSRPYMAYLEIVTSNGPSLVCGGFLIRRNFVLTAAHCAGRSITVTLGAHNITEEEDTWQKLEVIKQFRHPKYNTSTLHHDIMLLKLKEKASLTLAVGTLPFPSQFNFVPPGRMCRVAGWGRTGVLKPRSDTLQEVKLRLMDPQACSHFRDFDHNLQLCVGNPRKTKSAFRGDSGGPLLCAGVAQGIVSYGRSDAKPPRVFTRISHYRPWINQILQAN
B3: chymase C22S/K40M/F41V/G151R/K192R/A226R (enzyme)
chain: IIGGTESKPHSRPYMAYLEIVTSNGPSMVCGGFLIRRNFVLTAAHCAGRSITVTLGAHNITEEEDTWQKLEVIKQFRHPKYNTSTLHHDIMLLKLKEKASLTLAVGTLPFPSQFNFVPPGRMCRVAGWGRTGVLKPRSDTLQEVKLRLMDPQACSHFRDFDHNLQLCVGNPRKTKSAFRGDSGGPLLCAGVAQGIVSYGRSDAKPPRVFTRISHYRPWINQILQAN
B4: chymase C22S/K40L/F41A/K192R/A226R (enzyme)
chain: IIGGTESKPHSRPYMAYLEIVTSNGPSLACGGFLIRRNFVLTAAHCAGRSITVTLGAHNITEEEDTWQKLEVIKQFRHPKYNTSTLHHDIMLLKLKEKASLTLAVGTLPFPSQFNFVPPGRMCRVAGWGRTGVLKPGSDTLQEVKLRLMDPQACSHFRDFDHNLQLCVGNPRKTKSAFRGDSGGPLLCAGVAQGIVSYGRSDAKPPRVFTRISHYRPWINQILQAN
B5: chymase C22S/F41R/L99H/G151A/F173S/Y215K/R217T/A226R (enzyme)
chain: IIGGTESKPHSRPYMAYLEIVTSNGPSKRCGGFLIRRNFVLTAAHCAGRSITVTLGAHNITEEEDTWQKLEVIKQFRHPKYNTSTHHHDIMLLKLKEKASLTLAVGTLPFPSQFNFVPPGRMCRVAGWGRTGVLKPASDTLQEVKLRLMDPQACSHSRDFDHNLQLCVGNPRKTKSAFKGDSGGPLLCAGVAQGIVSKGTSDAKPPRVFTRISHYRPWINQILQAN
B6: chymase C22S/F41K/L99H/G151A/F173Y/Y215K/R217S/A226R (enzyme)
chain: IIGGTESKPHSRPYMAYLEIVTSNGPSKKCGGFLIRRNFVLTAAHCAGRSITVTLGAHNITEEEDTWQKLEVIKQFRHPKYNTSTHHHDIMLLKLKEKASLTLAVGTLPFPSQFNFVPPGRMCRVAGWGRTGVLKPASDTLQEVKLRLMDPQACSHYRDFDHNLQLCVGNPRKTKSAFKGDSGGPLLCAGVAQGIVSKGSSDAKPPRVFTRISHYRPWINQILQAN
B7: chymase C22S/F41V/L99H/F173Y/Y215K/A226R (enzyme)
chain: IIGGTESKPHSRPYMAYLEIVTSNGPSKVCGGFLIRRNFVLTAAHCAGRSITVTLGAHNITEEEDTWQKLEVIKQFRHPKYNTSTHHHDIMLLKLKEKASLTLAVGTLPFPSQFNFVPPGRMCRVAGWGRTGVLKPGSDTLQEVKLRLMDPQACSHYRDFDHNLQLCVGNPRKTKSAFKGDSGGPLLCAGVAQGIVSKGRSDAKPPRVFTRISHYRPWINQILQAN
B8: chymase C22S/L99Y/F173L/K192R/Y215H/R217T/S218V/A226R (enzyme)
chain: IIGGTESKPHSRPYMAYLEIVTSNGPSKFCGGFLIRRNFVLTAAHCAGRSITVTLGAHNITEEEDTWQKLEVIKQFRHPKYNTSTYHHDIMLLKLKEKASLTLAVGTLPFPSQFNFVPPGRMCRVAGWGRTGVLKPGSDTLQEVKLRLMDPQACSHLRDFDHNLQLCVGNPRKTKSAFRGDSGGPLLCAGVAQGIVSHGTVDAKPPRVFTRISHYRPWINQILQAN
B9: chymase C22S/L99W/F173K/K192R/R217S/S218V/A226R (enzyme)
chain: IIGGTESKPHSRPYMAYLEIVTSNGPSKFCGGFLIRRNFVLTAAHCAGRSITVTLGAHNITEEEDTWQKLEVIKQFRHPKYNTSTWHHDIMLLKLKEKASLTLAVGTLPFPSQFNFVPPGRMCRVAGWGRTGVLKPGSDTLQEVKLRLMDPQACSHKRDFDHNLQLCVGNPRKTKSAFRGDSGGPLLCAGVAQGIVSYGSVDAKPPRVFTRISHYRPWINQILQAN
B10: chymase C22S/F41R/L99H/G151T/F173Y/Y215K/A226R (enzyme)
chain: IIGGTESKPHSRPYMAYLEIVTSNGPSKRCGGFLIRRNFVLTAAHCAGRSITVTLGAHNITEEEDTWQKLEVIKQFRHPKYNTSTHHHDIMLLKLKEKASLTLAVGTLPFPSQFNFVPPGRMCRVAGWGRTGVLKPTSDTLQEVKLRLMDPQACSHYRDFDHNLQLCVGNPRKTKSAFKGDSGGPLLCAGVAQGIVSKGRSDAKPPRVFTRISHYRPWINQILQAN
B11: chymase C22S/F41L/L99H/G151T/F173Y/Y215K/A226R (enzyme)
chain: IIGGTESKPHSRPYMAYLEIVTSNGPSKLCGGFLIRRNFVLTAAHCAGRSITVTLGAHNITEEEDTWQKLEVIKQFRHPKYNTSTHHHDIMLLKLKEKASLTLAVGTLPFPSQFNFVPPGRMCRVAGWGRTGVLKPTSDTLQEVKLRLMDPQACSHYRDFDHNLQLCVGNPRKTKSAFKGDSGGPLLCAGVAQGIVSKGRSDAKPPRVFTRISHYRPWINQILQAN
B12: chymase C22S/F41G/L99H/G151T/F173Y/Y215K/A226R (enzyme)
chain: IIGGTESKPHSRPYMAYLEIVTSNGPSKGCGGFLIRRNFVLTAAHCAGRSITVTLGAHNITEEEDTWQKLEVIKQFRHPKYNTSTHHHDIMLLKLKEKASLTLAVGTLPFPSQFNFVPPGRMCRVAGWGRTGVLKPTSDTLQEVKLRLMDPQACSHYRDFDHNLQLCVGNPRKTKSAFKGDSGGPLLCAGVAQGIVSKGRSDAKPPRVFTRISHYRPWINQILQAN
B13: chymase C22S/F41V/L99H/G151R/F173S/Y215K/A226R (enzyme)
chain: IIGGTESKPHSRPYMAYLEIVTSNGPSKVCGGFLIRRNFVLTAAHCAGRSITVTLGAHNITEEEDTWQKLEVIKQFRHPKYNTSTHHHDIMLLKLKEKASLTLAVGTLPFPSQFNFVPPGRMCRVAGWGRTGVLKPRSDTLQEVKLRLMDPQACSHSRDFDHNLQLCVGNPRKTKSAFKGDSGGPLLCAGVAQGIVSKGRSDAKPPRVFTRISHYRPWINQILQAN
B14: chymase C22S/K40M/F41V/K192R/A226R (enzyme)
chain: IIGGTESKPHSRPYMAYLEIVTSNGPSMVCGGFLIRRNFVLTAAHCAGRSITVTLGAHNITEEEDTWQKLEVIKQFRHPKYNTSTLHHDIMLLKLKEKASLTLAVGTLPFPSQFNFVPPGRMCRVAGWGRTGVLKPGSDTLQEVKLRLMDPQACSHFRDFDHNLQLCVGNPRKTKSAFRGDSGGPLLCAGVAQGIVSYGRSDAKPPRVFTRISHYRPWINQILQAN
B15: chymase C22S/F41I/L99H/G151K/F173Y/Y215K/R217G/A226R (enzyme)
chain: IIGGTESKPHSRPYMAYLEIVTSNGPSKICGGFLIRRNFVLTAAHCAGRSITVTLGAHNITEEEDTWQKLEVIKQFRHPKYNTSTHHHDIMLLKLKEKASLTLAVGTLPFPSQFNFVPPGRMCRVAGWGRTGVLKPKSDTLQEVKLRLMDPQACSHYRDFDHNLQLCVGNPRKTKSAFKGDSGGPLLCAGVAQGIVSKGGSDAKPPRVFTRISHYRPWINQILQAN
B16: chymase C22S/L99R/F173Y/K192R/S218L/A226R (enzyme)
chain: IIGGTESKPHSRPYMAYLEIVTSNGPSKFCGGFLIRRNFVLTAAHCAGRSITVTLGAHNITEEEDTWQKLEVIKQFRHPKYNTSTRHHDIMLLKLKEKASLTLAVGTLPFPSQFNFVPPGRMCRVAGWGRTGVLKPGSDTLQEVKLRLMDPQACSHYRDFDHNLQLCVGNPRKTKSAFRGDSGGPLLCAGVAQGIVSYGRLDAKPPRVFTRISHYRPWINQILQAN
B17: chymase C22S/F41R/L99H/F173Y/Y215K/A226R (enzyme)
chain: IIGGTESKPHSRPYMAYLEIVTSNGPSKRCGGFLIRRNFVLTAAHCAGRSITVTLGAHNITEEEDTWQKLEVIKQFRHPKYNTSTHHHDIMLLKLKEKASLTLAVGTLPFPSQFNFVPPGRMCRVAGWGRTGVLKPGSDTLQEVKLRLMDPQACSHYRDFDHNLQLCVGNPRKTKSAFKGDSGGPLLCAGVAQGIVSKGRSDAKPPRVFTRISHYRPWINQILQAN
B18: chymase C22S/L99F/F173K/K192R/R217S/S218I/A226R (enzyme)
chain: IIGGTESKPHSRPYMAYLEIVTSNGPSKFCGGFLIRRNFVLTAAHCAGRSITVTLGAHNITEEEDTWQKLEVIKQFRHPKYNTSTFHHDIMLLKLKEKASLTLAVGTLPFPSQFNFVPPGRMCRVAGWGRTGVLKPGSDTLQEVKLRLMDPQACSHKRDFDHNLQLCVGNPRKTKSAFRGDSGGPLLCAGVAQGIVSYGSIDAKPPRVFTRISHYRPWINQILQAN
B19: chymase C22S/L99W/F173K/R217S/S218R/A226R (enzyme)
chain: IIGGTESKPHSRPYMAYLEIVTSNGPSKFCGGFLIRRNFVLTAAHCAGRSITVTLGAHNITEEEDTWQKLEVIKQFRHPKYNTSTWHHDIMLLKLKEKASLTLAVGTLPFPSQFNFVPPGRMCRVAGWGRTGVLKPGSDTLQEVKLRLMDPQACSHKRDFDHNLQLCVGNPRKTKSAFKGDSGGPLLCAGVAQGIVSYGSRDAKPPRVFTRISHYRPWINQILQAN
B20: chymase C22S/L99H/F173Y/K192R/Y215K/R217S/S218V/A226R (enzyme)
chain: IIGGTESKPHSRPYMAYLEIVTSNGPSKFCGGFLIRRNFVLTAAHCAGRSITVTLGAHNITEEEDTWQKLEVIKQFRHPKYNTSTHHHDIMLLKLKEKASLTLAVGTLPFPSQFNFVPPGRMCRVAGWGRTGVLKPGSDTLQEVKLRLMDPQACSHYRDFDHNLQLCVGNPRKTKSAFRGDSGGPLLCAGVAQGIVSKGSVDAKPPRVFTRISHYRPWINQILQAN
B21: chymase C22S/F41G/L99H/F173Y/Y215K/A226R (enzyme)
chain: IIGGTESKPHSRPYMAYLEIVTSNGPSKGCGGFLIRRNFVLTAAHCAGRSITVTLGAHNITEEEDTWQKLEVIKQFRHPKYNTSTHHHDIMLLKLKEKASLTLAVGTLPFPSQFNFVPPGRMCRVAGWGRTGVLKPGSDTLQEVKLRLMDPQACSHYRDFDHNLQLCVGNPRKTKSAFKGDSGGPLLCAGVAQGIVSKGRSDAKPPRVFTRISHYRPWINQILQAN

Target: Human Factor B (human) (UniProt P00751)
Sequence (P00751 26-764 limits assumed): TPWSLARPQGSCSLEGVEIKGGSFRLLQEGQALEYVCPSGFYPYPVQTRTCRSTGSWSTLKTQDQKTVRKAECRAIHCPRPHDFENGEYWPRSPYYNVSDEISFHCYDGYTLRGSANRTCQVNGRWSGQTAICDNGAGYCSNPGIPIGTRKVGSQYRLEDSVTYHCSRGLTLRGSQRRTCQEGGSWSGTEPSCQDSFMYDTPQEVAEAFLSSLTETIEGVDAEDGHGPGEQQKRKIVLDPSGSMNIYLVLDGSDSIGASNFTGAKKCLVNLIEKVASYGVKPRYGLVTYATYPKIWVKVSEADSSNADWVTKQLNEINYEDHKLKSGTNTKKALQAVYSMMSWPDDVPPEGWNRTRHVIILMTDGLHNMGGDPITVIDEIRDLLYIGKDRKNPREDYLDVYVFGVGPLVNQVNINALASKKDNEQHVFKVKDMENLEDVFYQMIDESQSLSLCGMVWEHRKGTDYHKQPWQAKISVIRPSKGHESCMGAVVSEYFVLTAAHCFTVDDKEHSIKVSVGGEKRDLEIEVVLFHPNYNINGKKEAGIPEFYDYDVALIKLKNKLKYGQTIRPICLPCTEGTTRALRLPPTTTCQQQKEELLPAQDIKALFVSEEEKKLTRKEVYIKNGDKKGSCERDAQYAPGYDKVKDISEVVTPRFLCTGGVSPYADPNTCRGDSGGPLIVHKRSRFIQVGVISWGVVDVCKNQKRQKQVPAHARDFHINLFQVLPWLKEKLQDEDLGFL
Assay: cell-based or functional assay

In order of rising fB Cleavage EC50:
1. B16  0.555 µM
2. B6  1.31 µM
3. B5  2.25 µM
4. B9  2.49 µM
5. B19  2.66 µM
6. B10  3.22 µM
7. B11  3.23 µM
8. B20  3.46 µM
9. B18  4 µM
10. B13  4.78 µM
11. B17  4.8 µM
12. B7  6.06 µM
13. B12  6.6 µM
14. B21  6.65 µM
15. B4  7.39 µM
16. B2  7.5 µM
17. B1  7.77 µM
18. B3  7.77 µM
19. B14  7.77 µM
20. B15  7.77 µM

In order of falling fB Cleavage, 64% A2M-depl plasma EC50:
1. B6  5.75 µM
2. B8  4.58 µM
3. B5  2.88 µM
4. B1  2.29 µM

In order of rising fB Cleavage, 64% plasma EC50:
1. B5  3.4 µM
2. B1  4.38 µM
3. B6  5.69 µM
4. B8  12.4 µM

In order of falling fB Cleavage, 80% plasma EC50:
1. B6  18.6 µM
2. B1  7.59 µM
